Data: the supplement of paper PMC12042874
± gives the uncertainty stated by the source.

Assay: amyloid nucleation score (Sup35N fusion, yeast selection) (log enrichment); library NNK2; higher = more nucleation; inactive = no reads after selection
Summary of the method: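 Growth for 7 days at 30°C on medium lacking adenine and uracil followed a 24-hour induction with 100 μM copper sulfate of psi-negative yeast expressing peptides of 20 random codons fused to Sup35N. Input and output plasmid inserts were sequenced with Illumina, and sequences with under 100 input reads were excluded. Nucleation score is the DiMSum log enrichment of output over input reads, centred on the mode score of non-aggregating sequences.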

Row | Substance | amyloid nucleation score
1 | RFFGTTFYTAMMTRGFETVT | -0.139 ± 0.28
2 | PSSISLTVYKSRMGEYWCKG | inactive
3 | VGIGVAERCDSRWLL | 0.886 ± 0.3
4 | PGEECGGLSITIEWGTSSS | 0.211 ± 0.5
5 | DYLKLLAYNVLFR | inactive
6 | FRYERTGRAMSTASVVTTTV | 1.04 ± 0.68
7 | TFRPFQVTSHVSLRDMMGIS | 0.132 ± 0.3
8 | FITEDLVRAFANYVND | inactive
9 | MKGNGCNIFRQGTWRDSFAD | -0.715 ± 0.41
10 | FWGIMNSILTETLL | -1.53 ± 1.1
11 | ILLISVCYRNIVYISSSLMG | -0.172 ± 0.21
12 | LAQRSNFRASCWINFLGWLD | inactive
13 | LGNTRSIWGE | 0.578 ± 0.27
14 | VGSDWKSVNIFAVDEPGSTY | -1.43 ± 0.55
15 | EWLTLTDIFT | -0.619 ± 1
16 | SGWVLGYSCRKLLLGGLSRG | 1.48 ± 0.31
17 | DVHNMGSPGVLAMLVTSDGK | 0.876 ± 0.74
18 | RTDRLCARHLGLFDDTVPET | 0.664 ± 0.21
19 | TSLFVLVVGLGLCK | 2.91 ± 0.19
20 | KGLWTISVSLWVV | 0.112 ± 0.18
21 | QYVDWLLYGLRDCYWYRRVY | 0.192 ± 0.3
22 | MTQRHFLVDTGRKAR | 1.22 ± 0.48
23 | SFTGL | -0.684 ± 0.44
24 | FDGHLINTFPRADASIAEDN | -0.454 ± 0.41
25 | VSENDGVRACCLS | 0.474 ± 0.44

Row | Substance | amyloid nucleation score
26 | DSGLMSFVCNVDPKCVCFVN | 7.968 ± 0.075
27 | TKNACMPRGQGRMAPLRCCL | 0.857 ± 0.51
28 | VLDHDGVVVWNFFPHMYSDP | 4.63 ± 0.05
29 | GKQTP | -0.711 ± 0.45
30 | IITMLGQEWAFGKLFDPLTL | 0.524 ± 0.34
31 | VFIVYLWWTLRSWHIRVLIS | -0.52 ± 1.1
32 | INSPSYDNILMSTSSANMKR | inactive
33 | GFNGRALKLERARDLVCGRM | 0.386 ± 0.29
34 | VDVFGVCRRSVYVA | 0.988 ± 0.4
35 | VGCIYRTQDCCSRDMVCIRV | 0.071 ± 0.79
36 | SSFIRGLTSKAG | 1.05 ± 0.57
37 | FTFIHFLCVSVHLLNSWS | 0.42 ± 0.56
38 | SKRFRLTIDGIGVYRW | 0.649 ± 0.22
39 | YSVTLGGWIREQSLQLSTSS | 0.768 ± 0.46
40 | SNITDWVTTKVRMEKRPVVQ | inactive
41 | DYYYIPSSIVSTIFKEFSPL | -1.97 ± 0.78
42 | NIGSWGVSRLSCLYAGLANG | 0.549 ± 0.42
43 | CTTSWKMSCKFALGN | 4.04 ± 0.07
44 | SDQQYGCDWVWLGRGPIEVA | 0.252 ± 0.28
45 | WSEVGWFIYDKFREFVFSIK | inactive
46 | RFLAN | inactive
47 | HYCVIEKRSHIG | -0.739 ± 0.64
48 | HFNSTNPTRLLVDEEFFYFE | -0.317 ± 0.5
49 | VIEIWSN | -0.531 ± 1.1
50 | YWPLVIFLAWPMKYFVLEVM | -0.417 ± 0.43

Row | Substance | amyloid nucleation score
51 | LPLLCFTDV | inactive
52 | FFLIRSMGSSSAYRLRVCWR | -0.37 ± 0.76
53 | TLRVS | -0.207 ± 0.36
54 | LCFFT | 0.383 ± 0.74
55 | FIWSLRGDDRSCLRLSSLQT | -1 ± 0.63
56 | YKNVFHNCILADSSVYWNTH | 5.764 ± 0.044
57 | RWTLWFEGRLERLVAIIS | -0.133 ± 1
58 | VRVHCLHLVYYYSQCPRYNN | -0.277 ± 1.1
59 | DCMLNGLRWEMMLYKLDCFT | 0.189 ± 0.64
60 | ADRSVGGFNCVSFLYAVN | 4.02 ± 0.076
61 | KRTWRFFYRL | inactive
62 | SITMFQCQRVCASLQYVTGT | 6.968 ± 0.063
63 | QDTFYEWCKNVHVLHTRFGV | 0.905 ± 0.47
64 | VRDLPMCNPYIRYTLFCQVS | -0.497 ± 0.45
65 | LYIALIFSISHGWCIAFRLT | -0.214 ± 1.1
66 | TVSYKWSSMEVITKYKGWSR | 0.897 ± 0.28
67 | NPETQYASLGRS | -0.306 ± 0.38
68 | IAIRFIDDYCGFRGV | 0.288 ± 0.8
69 | HWTSFKSGNALGMCETI | 0.076 ± 0.41
70 | GNTLGRFMVLHT | -0.199 ± 0.8
71 | FEGWVWFIPEASEHSYEHVN | -0.002 ± 1
72 | YLSKTLIAVMDFCVLDTG | -0.971 ± 0.48
73 | IWSSHRVSHGVILESGEVWA | -0.25 ± 0.42
74 | FTVRQTKAAGECSSKQWGTL | 3.18 ± 0.098
75 | LLEVGSKKCGHPLSTYSKAN | 0.463 ± 0.48

Row | Substance | amyloid nucleation score
76 | ESVRASPV | 0.093 ± 0.28
77 | HIRFVDWNDTLIWVANGYI | 0.049 ± 0.8
78 | QVTSCGSWWSRSIWYEVVFS | -0.622 ± 1.1
79 | KSGGDDLESSWRCWASMGLM | 0.182 ± 0.31
80 | TYATNSRRNRNVYLRPHCQI | 0.117 ± 0.3
81 | LFYRYFLCVTRRTNEYGVL | -1.75 ± 1
82 | VLDAHLY | inactive
83 | RWYSYYTQGDFRRFFLGSN | inactive
84 | NLCDLDRGNEYAWWRVFMRS | 4.38 ± 0.11
85 | VLTSFGLW | 5.206 ± 0.037
86 | TNTCFFSNGGRTSKWHPVLV | 0.135 ± 0.56
87 | VYHSGMTLFNFCCSMHLVEL | 9.22 ± 0.041
88 | ANMLRWLNFETFAVSRNLAI | 0.009 ± 0.74
89 | MLFLMGPVWTCFKICNSLLT | 0.333 ± 0.23
90 | CYHVTLMR | 0.718 ± 0.26
91 | KPSKYPVYLLGVVKVQVDYD | -0.849 ± 1.1
92 | NSLVLPDLAYLGCKMNLNFS | 3.94 ± 0.074
93 | RFSVDRSSRELICMLGQFDN | 0.356 ± 0.38
94 | TSGLILL | -0.301 ± 0.37
95 | DCIHCSRTNAADWMGYVFGY | 4.82 ± 0.085
96 | TNSRRCSYSLTPPSGTNRCQ | -0.053 ± 0.54
97 | YFGTLSLLKHEVA | -0.289 ± 0.3
98 | IHDELSRCRC | -0.611 ± 0.63
99 | DVYSSVRVNYT | -0.386 ± 0.56
100 | MMMLLG | 0.505 ± 0.13

Row | Substance | amyloid nucleation score
101 | TAYSA | 0.521 ± 0.41
102 | HVNGL | 0.098 ± 0.5
103 | HPRTPGLVIEDKKNLFLVWR | 5.22 ± 0.057
104 | FYLSAFRHVMRASCLDDLSK | inactive
105 | NFQMTVRYWVKDGVESQEIN | 4.192 ± 0.033
106 | YSIYELPTHYLKCLRSYKSK | -0.627 ± 1.1
107 | YFSCEFDTYHGEYCCMWQIM | 0.069 ± 0.8
108 | FLCVTISLDNSVACLPLRYS | 0.532 ± 0.66
109 | SGCGCGLGMPTCRRSVRG | 0.631 ± 0.19
110 | SRLLIREYNLVSNDKFIYFV | 3.01 ± 0.073
111 | FALNLFCEDKCLYCSLVSS | 2.92 ± 0.066
112 | RYSNMLN | 3.83 ± 0.096
113 | DIPLSSAKAYI | 0.443 ± 0.8
114 | FRRRQNRAHKYGALNYSMGS | inactive
115 | SLTTLTAVHSCFRLNAWLYF | 0.477 ± 0.29
116 | GNSIVENFLCSRHQCYVM | 8.598 ± 0.046
117 | CKMRFLNMWRHFLKCLTAYT | inactive
118 | ILRVSGDAERSILFCPCLAI | -0.255 ± 0.25
119 | VPLRA | 0.002 ± 0.55
120 | ACNFFPLI | 3.29 ± 0.065
121 | GLDITIGEA | -0.522 ± 0.63
122 | GKPNGGYSTAK | 0.777 ± 0.4
123 | RWCSLDSQSDYSSM | -0.681 ± 1
124 | AHRYGR | 1.57 ± 0.43
125 | DMYWCIYDRFMSLSWKT | -0.597 ± 0.53

Row | Substance | amyloid nucleation score
126 | KQFDMDAWLTWSRMVFMSPV | 0.044 ± 0.39
127 | PQHFGEPTLIMVGKGLGCLR | 0.178 ± 0.77
128 | GASVVDKSSRPCGAILEHSG | 0.894 ± 0.74
129 | IWSQW | -0.134 ± 1.1
130 | TFWTANISSADTSSFFY | 0.272 ± 0.34
131 | FNFIIAQE | -1.1 ± 1.1
132 | DCSDPCGSAPKDLSTKTVRC | 1.61 ± 0.26
133 | TFSLAVVYRFDDAFTLRVGD | 6.135 ± 0.05
134 | SFWNQKYCA | -0.117 ± 0.4
135 | LSVTGDTWRMVSRYSHECKD | 0.859 ± 0.52
136 | CPMCTFLCCLAFY | 8.626 ± 0.04
137 | ITQRHSVNLNMMSLDLYTSS | 0.295 ± 1
138 | FIIRYLYYKS | inactive
139 | TITCLFKVRRCVYV | -0.325 ± 0.55
140 | LSPVSWYLRITYNAYSMVGQ | 1.91 ± 0.11
141 | DGDNNCMCS | 0.404 ± 0.48
142 | YYTPRWCFAYVSRLVWFLLP | inactive
143 | YCCTDQGFSLGYRMLWCRDN | -1 ± 0.24
144 | NNAMWSWSS | -0.039 ± 0.41
145 | WVLVYIICFTQDDS | -1.4 ± 1.1
146 | YGCCGKDFCVGPRGVCAV | 1.05 ± 0.24
147 | LEQFYCTMGSSFNMNGGMVI | -0.436 ± 0.29
148 | FYLLVFDLHDSCL | inactive
149 | CINVYKY | 6.768 ± 0.026
150 | FMPSVFMYSLVVFRYVVYMS | -1.07 ± 0.78

Row | Substance | amyloid nucleation score
151 | FLGKDWYVVTSVVKYTNAFF | 0.104 ± 0.45
152 | GVKSFGVFGSMYWILMFSKA | -0.495 ± 0.48
153 | VVWEYIRYRCCTYDAVYTRS | 0.522 ± 0.74
154 | GGRMHCARRTRMWVHLDAGM | 5.823 ± 0.049
155 | GSCSKCNWCINKTAQGFVLS | -0.062 ± 0.45
156 | FRRFCQDILYICMRKDMVQG | 0.833 ± 0.8
157 | MLNSVLAQAMRH | 1.28 ± 0.53
158 | SQVSHLRLDVPVAEI | 4.04 ± 0.078
159 | RELYYRMAVLNQSTTTLYRG | inactive
160 | NYCVLSFDISGYAFYKEGLG | -0.492 ± 1.1
161 | RLMCVLMGYRGSSGVDCRSA | 0.185 ± 0.27
162 | IGVLISVGNLSYSTYSSRFI | 5.87 ± 0.062
163 | VGIDYV | inactive
164 | ESMLSEFFWDHS | 3.07 ± 0.072
165 | ILNCVMYLICKYVFII | 2.16 ± 0.14
166 | MIQHEKQMWWADNSYP | 0.483 ± 0.24
167 | CRNCLLGHLRLVTHHVRILY | inactive
168 | YHYANDMFFN | -0.727 ± 0.56
169 | RLASSIRWTTFSSDGRVRIL | 0.783 ± 0.57
170 | DIIVYM | inactive
171 | RIMSCNQITNIICVL | 4.89 ± 0.078
172 | YNSCFYQKWVMCGHSCYHQV | 4.77 ± 0.11
